Results from PMC6900781, “Reconstituting Drosophila Centromere Identity in Human Cells” (Cell Reports, 2019).

B1: recombinant CAL1(841-979) (domain or fragment, Drosophila melanogaster, UniProt Q9VEN2 841-979, looked up)
chain: GGDPDCTVVTSTTGCEPPASERQEIPATIKITKRGILLHSPSAPEGASFTLTEQGLGKIIGERWARKYLKYHIGSRSFDSRHSVYYQPTPQLAAALSAPQDAQNIGNISGSSASDDDIFEQINRYGTVYSILENNSGDK
notes: also called CAL1 monomer fragment; source: recombinant, vector pEC-K-3C-His-GST
B2: CAL1-V5 (natural protein, Drosophila melanogaster, UniProt Q9VEN2 1-979, looked up)
chain: MANAVVDEETLEAMVYERSKAWSSKMADFASLEDGMEIDVAEFDNLFHGEDEDPDLDDVAKEAVEDNVPDEAKLEMGHINATSVTELTLILCANEDNEAKAEIEEILNQTVPVVEEHKRKWREAGLDRILDTFDEKQIEHHVGRWMRRHNSVYLEASPPKYLPPHHNSISDESDESMHSIDTARYIQQSRRRNAHMTNKNMTTIKMYRKHSHKRDELRAKYAYGDEQEHRHHMQAVLLRRRERERQLAYLASTPMQCVYSSGHHMRRKNLRKRRINSWMFDSASSSEEDTSFGGCDCHSCRRHYALSRSVYQSCPYGRGQREYHHRQMASRTMHTMRRQHTFDMEMDLRPRLPENECSCCNSDRLCSNVIHIANSSTEEWVVENRSNHLTQETQEKTRKQKHQPMDARKVSHQPVCSKGHEQKPLSSKATSVSKLVLSKEKYMQMFDSESSDEDNALAKKGLLCCSDKKKGMTFPTPNAAGKITHPTSSAKKAIRKEARPNGLAQIQEEGPTATNSPIESTYLPVAHMKSVSIDGSSGTSATFESPAKKAPKRGIRETSPLNGNELQQLISTIPIADEKASSLMEKVDNCIGRESFDDRNKDFMHMENSSTKTAVEKSTKQKRVSGKKSEIPKSIITNNEILEKNSTETLSEKQVAAKAKKQSVRKTGATGKPSTSRLKKSEKTKTTSSVTSTSKLEQVREEESDVSSEVLAKPKPQCSTTASILKQGGDGASNSEDDLQIALAMSKATYKEEQQKRKKTKREPSNKQPQSPAEKSMTVFNNQSVACNSTALANDTACYRVLPKRRGVKRAAAVSTTEEKTATNSSSSPTSSLEEMGSPTGGDPDCTVVTSTTGCEPPASERQEIPATIKITKRGILLHSPSAPEGASFTLTEQGLGKIIGERWARKYLKYHIGSRSFDSRHSVYYQPTPQLAAALSAPQDAQNIGNISGSSASDDDIFEQINRYGTVYSILENNSGDK
notes: CAL1, Drosophila dCENP-A-specific chaperone; also called V5-tagged CAL1; source: U2OS-LacO cells, transiently transfected, in cells; not shown: V5, C-terminal, kept
B3: recombinant dCENP-A(101-225) (domain or fragment, Drosophila melanogaster, UniProt Q9V6Q2 101-225, looked up)
chain: QQESKTRAAGPVAAQNQTRRRKAANPMSRAKRMDREIRRLQHHPGTLIPKLPFSRLVREFIVKYSDDEPLRVTEGALLAMQESCEMYLTQRLADSYMLTKHRNRVTLEVRDMALMAYICDRGRQF
notes: also called dCENP-A lacking the N-terminal tail; source: recombinant, T7-promoter vector pET3a
B4: recombinant His-dCENP-C(1264-1411) (domain or fragment, Drosophila melanogaster, UniProt Q9VHP9 1264-1411, looked up)
chain: GPVVFSTPLRDEQEEASTKLMQWLRGVGDAPPSASMSDENASVSSANELIFCQVDGIDYAFYNTKEKAMLGYMRFKPYQKRSMKQAKVHPLKLLVQFGEFNVETLAVGEEKEVHSVLRVGDMIEIDRGTRYSIQNAIDKVSVLMCIRS
notes: dimer by SEC-MALS; source: recombinant, T7-promoter vector; not shown: His, N-terminal, kept

What was measured:
[1] = molecular target: B4; assay: SEC-MALS; recombinant proteins; Superdex 200 10/300 Increase GL, 50 mM HEPES pH 8.0, 150 or 300 mM NaCl, 1 mM TCEP, 22°C, 100 μl of 1-5 mg/ml; conditions: both partners purified
[2] = molecular target: B4; assay: mass spectrometry (iBAQ peptide intensities) of the complex; ratio of iBAQ intensities of the two fragments within the recombinant His-dCENP-C(1264-1411)/CAL1(841-979) complex; conditions: both partners purified
[3] = molecular target: T1, dCENP-A^C-GFP-LacI (Drosophila melanogaster, UniProt Q9V6Q2 1-202; P02299 116-136); assay: LacI/LacO tethering and recruitment assay (immunofluorescence); bait fused to GFP-LacI tethered to chromosomal LacO arrays in human U2OS cells; HA- or V5-tagged prey transiently co-expressed; IF 48 h after transfection, prey intensity at the LacO spot or % of cells; no third Drosophila centromere protein co-expressed; conditions: partners not purified
T1 construct: Drosophila CENP-A, N, L1 and α2 domains, residues 1-202; Drosophila histone H3, C region, residues 116-136; also called dCENP-A^C chimera; source: U2OS-LacO cells, transiently transfected, in cells; not shown: GFP-LacI (LacI lacking 11 C-terminal amino acids), C-terminal, kept
T1 sequence (Q9V6Q2 other isoform, or with tags, fused parts or gaps): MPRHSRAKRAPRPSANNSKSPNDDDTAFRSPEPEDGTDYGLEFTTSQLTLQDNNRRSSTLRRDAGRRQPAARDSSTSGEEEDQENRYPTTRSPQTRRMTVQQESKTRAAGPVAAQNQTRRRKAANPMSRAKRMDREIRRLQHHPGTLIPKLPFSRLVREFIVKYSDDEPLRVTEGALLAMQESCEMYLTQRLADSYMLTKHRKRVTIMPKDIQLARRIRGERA

[4] = molecular target: T2, recombinant CAL1(1-160) (Drosophila melanogaster, UniProt Q9VEN2 1-160); assay: SEC-MALS; recombinant proteins; Superdex 200 10/300 Increase GL, 50 mM HEPES pH 8.0, 150 or 300 mM NaCl, 1 mM TCEP, 22°C, 100 μl of 1-5 mg/ml; conditions: both partners purified
T2 construct: CAL1, residues 1-160; the vector name points to a 3C protease site; monomer by SEC-MALS; also called monomeric N-terminal fragment of CAL1; source: recombinant, T7-promoter vector pEC-K-3C-His-GST
T2 sequence (looked up): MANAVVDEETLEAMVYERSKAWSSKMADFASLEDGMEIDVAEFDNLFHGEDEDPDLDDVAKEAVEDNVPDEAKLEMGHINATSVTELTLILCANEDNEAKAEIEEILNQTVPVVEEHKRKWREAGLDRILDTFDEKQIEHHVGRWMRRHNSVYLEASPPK

[5] = molecular target: T3, recombinant dH4 (Drosophila melanogaster, UniProt P84040 1-103); assay: as above; conditions: both partners purified
T3 construct: Drosophila histone H4 (dH4); source: recombinant, T7-promoter vector pET3a (from Karolin Luger)

[6] = molecular target: the molecule itself; assay: as above

B1 was tested, and the “stoichiometry N” value [1] was 0.5 CAL1 chains per dCENP-C chain and the “stoichiometry N” value [2] was ~0.5 CAL1 chains per dCENP-C chain.

With B2 the “CAL1 recruitment relative to wild-type dCENP-A” value [3] was 60%.

B3: binds [4]; binds [5].

With B4 the “stoichiometry N” value [6] was 2.
